Values belong to the molecule of their own block, whether it stands above or below them. Starred links: 1 amine or outer side, 2 acyl side, 3 side chain; linkers in the order of their positions; H or OH if unused. Non-standard residues stand in square brackets, D forms with d. *: point of attachment. Cys(ΨMe,MePro) = 2,2-dimethyl-L-thiazolidine-4-carboxylic acid, cis-proline analog, CC1(C)SC[C@@H](C(=O)[*:2])N1[*:1]; F∗ = N-terminal 5(6)-SFX fluorescein label; Tle = CC(C)(C)[C@H](N)C(=O)O; NHPr = CCCN*
Experiments:
[1] = biological target: Calcineurin (CN), purified as glutathione S-transferase fusion protein from Escherichia coli BL21 cells (UniProt Q08209); experiment: FA competition, competitor FITC-ZIZIT (100 nM), CN 150 nM
[2] = biological target: Calcineurin (CN), purified as glutathione S-transferase fusion protein from Escherichia coli BL21 cells (UniProt Q08209); experiment: fluorescence anisotropy, ratio of KD values against VIVIT
[3] = biological target: Calcineurin (CN), purified as glutathione S-transferase fusion protein from Escherichia coli BL21 cells (UniProt Q08209); experiment: fluorescence anisotropy, N-terminal 5(6)-SFX labeled peptide (100 nM) titrated with CN
[4] = biological target: Calcineurin (CN), purified as glutathione S-transferase fusion protein from Escherichia coli BL21 cells (UniProt Q08209); experiment: in vitro binding to CN, against ZIZIT
[5] = biological target: Calcineurin (CN), purified as glutathione S-transferase fusion protein from Escherichia coli BL21 cells (UniProt Q08209); experiment: fluorescence anisotropy, ratio of KD values against ZIZIT
[6] = biological target: protein-tyrosine phosphatase SHP1 (UniProt P29350); experiment: fluorescence anisotropy, FITC-labeled ZIZIT-cisPro 100 nM
Grb2 SH2 domain = biological target: T1, Grb2 SH2 domain (UniProt P62993 60-152, limits assumed); experiment: as above
T1 construct: domain: SH2 domain; also called SH2 domain of Grb2

[7] = biological target: bovine serum albumin (BSA) (bovine, UniProt P02769 25-607); experiment: as above
bovine serum albumin (BSA), sequence (P02769 25-607 limits assumed): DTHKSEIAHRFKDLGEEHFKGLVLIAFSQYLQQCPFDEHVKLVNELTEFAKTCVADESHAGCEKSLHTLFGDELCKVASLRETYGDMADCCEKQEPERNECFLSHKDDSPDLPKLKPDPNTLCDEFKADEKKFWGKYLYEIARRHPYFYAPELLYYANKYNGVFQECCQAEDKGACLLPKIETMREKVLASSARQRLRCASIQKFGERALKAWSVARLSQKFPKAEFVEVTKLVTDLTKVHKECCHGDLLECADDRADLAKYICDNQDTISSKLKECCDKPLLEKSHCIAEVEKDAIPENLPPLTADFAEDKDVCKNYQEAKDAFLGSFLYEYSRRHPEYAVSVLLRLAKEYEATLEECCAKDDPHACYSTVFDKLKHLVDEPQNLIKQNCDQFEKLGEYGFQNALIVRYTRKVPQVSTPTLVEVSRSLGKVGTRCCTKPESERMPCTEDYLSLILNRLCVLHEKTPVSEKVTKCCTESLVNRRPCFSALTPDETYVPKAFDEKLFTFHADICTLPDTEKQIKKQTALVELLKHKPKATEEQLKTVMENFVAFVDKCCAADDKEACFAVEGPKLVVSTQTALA

T1 sequence (P62993 60-152 limits assumed): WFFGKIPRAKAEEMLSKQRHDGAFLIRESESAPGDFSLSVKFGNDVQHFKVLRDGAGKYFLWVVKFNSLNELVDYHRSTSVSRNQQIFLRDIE

Molecule: Fluorescein-labeled ZIZIT peptide (GPHPZIZITGPHEE, Z = tert-leucine)
fold higher affinity than VIVIT [2]: 10 fold | Kd [3]: 43 nM

Molecule: unlabeled ZIZIT-cisPro peptide (GPHPZIZITG-Cys(Ψ^Me,MePro)-HEE)
IC50 [1]: 110 nM

Molecule: {F∗}-GPHP[Tle]I[Tle]ITG[Cys(ΨMe,MePro)]HEEG-NHPr (also called FITC-labeled ZIZIT-cisPro) [F*-GPHPZIZITG-Cys(Ψ^Me,MePro)-HEEG-Propyl (F*-ZIZIT-cis), fluorescein-labeled ZIZIT-cisPro]
fold more active than ZIZIT for binding [4]: 15 fold | fold improvement of binding affinity over VIVIT [2]: 200 fold | fold increase of binding affinity over ZIZIT [5]: 20 fold | Kd [6]: > 15000 nM | binding result (Grb2 SH2 domain): no binding (tested: 15 µM) | binding result [7]: no binding (tested: 15 µM) | Kd [3]: 2.6 nM

Results, then the molecule that gave them:

IC50 [1]: 280 nM
Molecule: unlabeled ZIZIT peptide (GPHPZIZITGPHEE, Z = tert-leucine)

Kd [3]: > 20000 nM
Molecule: {F∗}-GPHAVAVAAGPHEE-NH2 [F*-…-NH2 (F*-VAVAA), fluorescein-labeled negative control peptide]

Reference: patent publication US20170281723A1 (OHIO STATE INNOVATION FOUNDATION, published 2017)
